Measured values published in US20100136580A1 (Genentech, published 2010).

What follows are binders tested against T1, GST-Dvl2PDZ fusion protein (human, UniProt O14641 248-364) (assay: phage display selection on GST-Dvl2PDZ).
T1 construct: range 248-364; Made with the pGEX E. coli expression system; also called GST-PDZ fusion protein; not shown: glutathione S-transferase (GST) encoded by plasmid pGEX
T1 sequence (looked up): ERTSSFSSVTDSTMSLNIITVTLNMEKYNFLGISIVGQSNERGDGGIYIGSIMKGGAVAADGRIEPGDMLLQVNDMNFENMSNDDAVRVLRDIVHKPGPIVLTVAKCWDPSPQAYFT
Protocol: The libraries were cycled through rounds of binding selection with a GST-Dvl2PDZ fusion protein coated on 96-well Maxisorp immunoplates as the capture target. Phage were propagated in E. coli XL1-blue with M13-KO7 helper phage and 10 μM IPTG. After four rounds of binding selection, individual phage clones were analyzed in a high-throughput phage ELISA, and positive clones were subjected to DNA sequence analysis.
We used decapeptide libraries fused to the C-terminus or N-terminus of the phage coat protein. The library contained NNK degenerate codons that encoded all 20 natural amino acids. The possible occurrence of amber stop codons in the degenerate codon also provided for the display of shorter peptides for the C-terminal library. Each library was cycled through four rounds of binding selection with immobilized GST-Dvl2PDZ fusion protein as the capture target.

Binding result, binds:
LLFLKYYGWL [SEQ ID NO 20]
KFLGWF [SEQ ID NO 30]
TVVWHDYGWIGGG [SEQ ID NO 50]
SISYWFYGWL [SEQ ID NO 19]
TPLYNYFGGL [SEQ ID NO 32]
PEVWIDGPESG [SEQ ID NO 156]
TSFLKGYGWL [SEQ ID NO 18]
VPTWIDGPCVD [SEQ ID NO 158]
NRWRLLGWF [SEQ ID NO 11]
ERWIDYGYIL [SEQ ID NO 152]
YTFFGWF [SEQ ID NO 25]
SWKLLGFF [SEQ ID NO 17]
WVLVDYGVIGGG [SEQ ID NO 46]
DIVLTNYGWIGGG [SEQ ID NO 43]
QTIWKDYGIIGGG [SEQ ID NO 45]
DRIRFLGWF [SEQ ID NO 14]
EMVVTNYGWIGGG [SEQ ID NO 54]
TTEVWVDWPM [SEQ ID NO 161]
RTRFTCFGWF [SEQ ID NO 34]
EWSHVYYGWLGGG [SEQ ID NO 42]
EKIVKDYGWIGGG [SEQ ID NO 51]
LVVKDYGWIGGG [SEQ ID NO 47]
TSSWKWYGWL [SEQ ID NO 8]
ITRYTFFGFF [SEQ ID NO 39]
NKRYTVLGWF [SEQ ID NO 6]
MTKWIWYGWL [SEQ ID NO 35]
LTEIWIDGWP [SEQ ID NO 154]
ELRWHDYGWIGGG [SEQ ID NO 56]
NVFRFFGWL [SEQ ID NO 22]
TVRWVFFGFF [SEQ ID NO 33]
STRHYRTWWF [SEQ ID NO 21]
TSWCKWYGWL [SEQ ID NO 12]
ELRWHDYGWIGGG [SEQ ID NO 40]
TWRVLGWF [SEQ ID NO 23]
QAVYKNYGWIGGG [SEQ ID NO 41]
YFFYGWF [SEQ ID NO 31]
AEVWVDGPYI [SEQ ID NO 164]
SEWKNYGYIGGG [SEQ ID NO 48]
NEVWIDGPGQ [SEQ ID NO 157]
NEVWIDGPGI [SEQ ID NO 159]
AEQWIDGPHL [SEQ ID NO 160]
GWTWKDYGMIGGG [SEQ ID NO 49]
QWVMTECGWIGGG [SEQ ID NO 52]
RIVSFFYGWL [SEQ ID NO 29]
QTIWKDYGII [SEQ ID NO 165]
SWYFKFYGWL [SEQ ID NO 38]
FWIYKYYGRF [SEQ ID NO 13]
AVRWLFLGWF [SEQ ID NO 15]
SPRFTFLGWF [SEQ ID NO 28]
SHFKFFGWF [SEQ ID NO 26]
GEMWVDGPCL [SEQ ID NO 162]
GTQWKDYGWLGGG [SEQ ID NO 53]
RPFCTFLGWF [SEQ ID NO 37]
GEMWVDGPCL [SEQ ID NO 151]
MMWIDGPLAS [SEQ ID NO 150]
ELRWHDYGWIGGG [SEQ ID NO 57]
NRIPCLGGW [SEQ ID NO 27]
TVVWHDYGWIGGG [SEQ ID NO 44]
RSGHRFLGWF [SEQ ID NO 16]
TIWWDYGAI [SEQ ID NO 166]
NWKWYGFF [SEQ ID NO 24]
ETWIDGPMYT [SEQ ID NO 153]
RISWTFLGYF [SEQ ID NO 36]
DMDFTGFGWLGGG [SEQ ID NO 55]
IVRWTLLGIF [SEQ ID NO 7]
PRIFKDYGMF [SEQ ID NO 9]
YWTRTFYGFF [SEQ ID NO 10]
SWWNKCYGWF [SEQ ID NO 5]
